In patent publication US20260109763A1 (DENALI THERAPEUTICS, published 2026):
Numbering of substitutions follows the chain as printed. Where two headings read alike, the source gives them in different places.

Columns and labels:
[1] = molecular target: T1, human PILRB extracellular domain (recombinant) (human, UniProt Q9UKJ0 20-191); experiment: SPR
T1 construct: also called hPILRB

[2] = molecular target: T2, human PILRA G78 extracellular domain (recombinant hPILRA ECD) (human, UniProt Q9UKJ1 20-197); experiment: SPR
T2 construct: also called hPILRA G78

[3] = molecular target: T3, human PILRA R78 extracellular domain (recombinant) (human, UniProt Q9UKJ1 20-197); experiment: SPR
T3 construct: also called hPILRA R78

[4] = molecular target: T1, human PILRB extracellular domain …; experiment: SPR; remark: listed apart in the source
[5] = molecular target: T4, cynomolgus monkey PILRA extracellular domain (recombinant) (cynomolgus monkey); experiment: SPR
T4 construct: also called cynoPILRA; Cyno PILRA

[6] = molecular target: T5, human PILRA G78 on cells (human, UniProt Q9UKJ1 20-303); experiment: cell-based or functional assay
[7] = molecular target: T6, human PILRA R78 on cells (human, UniProt Q9UKJ1 20-303); experiment: cell-based or functional assay
[8] = molecular target: T5, human PILRA G78 on cells; experiment: flow cytometry on HEK293 cells expressing hPILRA G78
[9] = molecular target: T2, human PILRA G78 extracellular domain …; experiment: SPR, Biacore 8K; hPILRA ECD; antibody with wild-type Fc
Protocol: (§1) Antibodies were captured on Biacore™ Series S CM5 sensor chips immobilized with mouse anti-human Fab (human Fab capture kit from GE Healthcare) followed by injections of serial 3-fold dilutions of recombinant ECD reagents at a flow rate of 30 μL/min. Each sample was analyzed using a 3-minute association followed by a 10-minute dissociation. After each injection, the sensor chip was regenerated using a 5 0 mM glycine pH2.0 regeneration buffer. A 1:1 Languir model of simultaneous fitting of kₒₙ and koff was used for kinetics analysis.
Characterization for binding affinities of the humanized antibodies to hPILRA ECD were measured by SPR using a Biacore 8K instrument (Table 7).

[10] = molecular target: T5, human PILRA G78 on cells; experiment: flow cytometry on PILRA G78 expressing CHO-K1 cells (FIG. 1H)
Protocol: (§2) PILRA G78 or R78 overexpressing HEK293 cells were stained with NucBlue Live cell stain for 30 mins at RT. […] Cell lines were run in duplicate to account for intra-variability, for a total of N=3. The same protocol was used for CHO-K1 cells expressing hPILRA G78.

[11] = molecular target: T6, human PILRA R78 on cells; experiment: flow cytometry on PILRA R78 expressing HEK293 cells (FIG. 1F); HEK293 cells expressing PILRA R78
Protocol: as §2

[12] = molecular target: T5, human PILRA G78 on cells; experiment: cell-based or functional assay; remark: listed apart in the source
[13] = molecular target: T1, human PILRB extracellular domain …; experiment: SPR, Biacore 8K, recombinant ECD
Protocol: as §1

[14] = molecular target: T5, human PILRA G78 on cells; experiment: flow cytometry on HEK293 cells expressing hPILRA G78; remark: listed apart in the source
Protocol: Parental HEK293 cells were labeled with NucBlue Live ReadyProbes Reagent for 30 mins. […] Antibody binding to the cells was detected by FACS and median fluorescence intensity (MFI) was derived from data analysis performed with the FLOJO software (FIGS. 1A-1C).

[15] = molecular target: T2, human PILRA G78 extracellular domain …; experiment: SPR, Biacore 8K; antibody captured via anti-human Fab, recombinant ECD injected; 1:1 fit;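 further: CM5 sensor chip, ECD analyte in threefold dilution series at 30 µL/min, 3 min association and 10 min dissociation, kon and koff fitted simultaneously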
Protocol: as §1

[16] = molecular target: T4, cynomolgus monkey PILRA extracellular …; experiment: as above
Protocol: as §1

[17] = molecular target: T4, cynomolgus monkey PILRA extracellular …; experiment: SPR, Biacore 8K, recombinant ECD
Protocol: as §1

[18] = molecular target: T7, human PILRB on cells (human, UniProt Q9UKJ0 20-227); experiment: flow cytometry (MFI), CHO-K1 cells expressing hPILRB
T7 construct: Expressed on CHO-K1 cells, or together with DAP12 on HEK293 cells (hPILRB-DAP12 OE HEK293); also called hPILRB; hPILRB-DAP12
Protocol: Antibody binding to the cells was detected by FACS and MFI was derived from data analysis performed with the FLOJO software.

[19] = molecular target: T5, human PILRA G78 on cells; experiment: flow cytometry on HEK293 PILRA G78 cells with sialidase treatment
Protocol: (§3) PILRA 78G or PILRA 78R expressing HEK293 cells were treated with SialEXO (Genovis). […] It is a combination of two sialidases acting on α2-3, α2-6 and α2-8 linkages. […] Cells were then washed twice and incubated and stained with NucBlue Live Stain for 30 mins at RT.

[20] = molecular target: T5, human PILRA G78 on cells; experiment: flow cytometry on HEK293 PILRA G78 cells without sialidase treatment
Protocol: as §3

[21] = molecular target: T6, human PILRA R78 on cells; experiment: flow cytometry on HEK293 PILRA R78 cells with sialidase treatment; with sialidase treatment
Protocol: as §3
(§4) Following the same protocol, sialidase treatment was also performed on HEK cells expressing PILRA R78.

[22] = molecular target: T6, human PILRA R78 on cells; experiment: flow cytometry on HEK293 PILRA R78 cells without sialidase treatment; without sialidase treatment
Protocol: as §3, §4

T1 sequence (Q9UKJ0 20-191 limits assumed): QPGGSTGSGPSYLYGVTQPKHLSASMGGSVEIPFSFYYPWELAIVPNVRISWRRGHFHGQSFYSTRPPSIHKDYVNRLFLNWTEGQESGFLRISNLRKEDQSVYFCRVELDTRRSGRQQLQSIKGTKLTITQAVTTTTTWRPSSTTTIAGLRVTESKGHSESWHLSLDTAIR
T6 sequence (Q9UKJ1 20-303 limits assumed): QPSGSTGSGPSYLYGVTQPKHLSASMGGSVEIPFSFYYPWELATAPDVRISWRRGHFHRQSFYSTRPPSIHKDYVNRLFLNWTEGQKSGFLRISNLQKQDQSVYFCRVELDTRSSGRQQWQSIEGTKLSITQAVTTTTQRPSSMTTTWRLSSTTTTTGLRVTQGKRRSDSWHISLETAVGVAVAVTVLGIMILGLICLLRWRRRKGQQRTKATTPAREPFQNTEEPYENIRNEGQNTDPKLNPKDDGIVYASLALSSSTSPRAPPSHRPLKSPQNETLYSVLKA
T2 sequence (Q9UKJ1 20-197 R78G limits assumed): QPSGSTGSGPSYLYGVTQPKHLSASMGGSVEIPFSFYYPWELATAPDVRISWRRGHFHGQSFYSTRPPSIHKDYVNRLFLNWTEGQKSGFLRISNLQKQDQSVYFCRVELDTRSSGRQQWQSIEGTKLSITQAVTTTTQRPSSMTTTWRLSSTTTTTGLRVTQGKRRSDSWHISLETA
T7 sequence (Q9UKJ0 20-227 limits assumed): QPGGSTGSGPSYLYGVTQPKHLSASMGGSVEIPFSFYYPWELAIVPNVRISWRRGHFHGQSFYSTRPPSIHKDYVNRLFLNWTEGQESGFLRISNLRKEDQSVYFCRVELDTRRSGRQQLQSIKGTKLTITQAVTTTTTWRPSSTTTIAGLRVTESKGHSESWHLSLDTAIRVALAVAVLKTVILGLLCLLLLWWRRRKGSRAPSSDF
T4 sequence (chain, as listed by the source limits assumed): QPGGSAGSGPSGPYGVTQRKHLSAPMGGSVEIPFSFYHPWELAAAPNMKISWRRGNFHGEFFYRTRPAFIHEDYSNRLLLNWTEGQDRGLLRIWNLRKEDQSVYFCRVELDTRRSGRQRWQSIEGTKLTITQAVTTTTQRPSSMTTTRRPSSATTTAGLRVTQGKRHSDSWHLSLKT
T5 sequence (Q9UKJ1 20-303 R78G limits assumed): as the sequence (Q9UKJ1 20-303 limits assumed) above, with R59G counted along it
T3 sequence (Q9UKJ1 20-197 limits assumed): as the sequence (Q9UKJ1 20-197 R78G limits assumed) above, with G59R counted along it

B1: Anti-PILRA antibody clone 36 (antibody, V domains shown)
VH: EVQLVQSGAEVKKPGASVKVSCKASGYTFTEYYMYWVRQAPGQGLELIGRIDPEDGGTDYIEKFKNRVTLTADTSTSTAYLELSSLRSEDTAVYYCATTIRGTVFAFWGQGTLVTVSS
VL: DIQMTQSPSSLSASVGDRVTITCRPSEDIYNGLAWYQQKPGKAPKLLIYNANSLHTGVPSRFSGSGSGTDYTLTISSLQPEDFATYFCQQYYDYPLTFGQGTKVEIK
notes: Humanized
- Kd [1]: 42 to 97 nM

B2: Anti-PILRA antibody clone 15 (antibody, V domains shown)
VH: B1 VH with V68S, Y95F
VL: B1 VL with P25A, Y30F, A43S, N52K, S53T, T69S
notes: Humanized; also called Ab.15
- Kd [2]: 0.65 nM
- Kd [3]: 10 nM
- Kd [4]: 95 nM
- Kd [5]: 0.72 nM
- pSTAT3 S727 induction, EC50 (nM) [6]: 17.5 nM
- pSTAT3 S727 induction, Fold Over Background [6]: 32.2 fold
- pSTAT3 Y705 induction, EC50 (nM) [6]: 16.9 nM
- pSTAT3 Y705 induction, Fold Over Background [6]: 33.5 fold
- pSTAT3 S727 induction, EC50 (nM) [7]: 12.7 nM
- pSTAT3 S727 induction, Fold Over Background [7]: 24.8 fold
- pSTAT3 Y705 induction, EC50 (nM) [7]: 5.66 nM
- pSTAT3 Y705 induction, Fold Over Background [7]: 38.2 fold
- EC50 [8]: 11.2 nM
- Kd [9]: 0.917 nM
- EC50 [10]: 9 nM
- EC50 [11]: 2.7 nM

B3: Anti-PILRA antibody clone 23 (antibody, V domains shown)
VH: B1 VH with I61V, V68A, Y95F, T98S, A106V, F107Y
VL: B1 VL with F87Y
notes: Humanized; also called Ab.23
- Kd [2]: 2.8 nM
- Kd [3]: 47 nM
- Kd [4]: 117 nM
- Kd [5]: 7.3 nM
- pSTAT3 S727 induction, EC50 (nM) [6]: 20.1 nM
- pSTAT3 S727 induction, Fold Over Background [6]: 23.6 fold
- pSTAT3 Y705 induction, EC50 (nM) [6]: 12.2 nM
- pSTAT3 Y705 induction, Fold Over Background [6]: 31.4 fold
- pSTAT3 S727 induction, EC50 (nM) [7]: 14.6 nM
- pSTAT3 S727 induction, Fold Over Background [7]: 28.5 fold
- pSTAT3 Y705 induction, EC50 (nM) [7]: 7.55 nM
- pSTAT3 Y705 induction, Fold Over Background [7]: 36.2 fold
- EC50 [8]: 21.4 nM
- Kd [9]: 0.495 nM
- EC50 [10]: 18.2 nM
- EC50 [11]: 3.7 nM

B4: Anti-PILRA antibody clone 37 (antibody, V domains shown)
VH: B1 VH
VL: B1 VL with P25A, Y30F, A43S, N52K, S53T, F87Y
notes: Humanized
- Kd [1]: 100 to 150 nM

B5: Anti-PILRA antibody clone 11 (antibody, V domains shown)
VH: EVKLVESGGGLVRPGGSQKLSCAVSGFAFSGYDMSWVRQTPEKRLEWVATISNGGRHTYYPDSVKGRFTISRDNARNTLYLQMSSLRSEDTALYYCARQKTWDVHAMDYWGQGTSVTVSS
VL: QLVLTQSSSASFSLGASAKLTCTLSSQHSTYTIEWYQQQPLKPPKYVMELKKDGSHSTGDGIPDRFSGSSSGADRYLSISNIQPEDEAIYICGVGDTIKEQFVYVFGGGTKVTVL
- pSTAT3 Y705 induction, Fold Over Background [12]: 1.42 fold
- binding result [13]: no binding
- EC50 [14]: 10.5 nM
- Kd [15]: 140 nM
- Kd [16]: 110 nM

B6: Anti-PILRA antibody clone 10 (antibody, V domains shown)
VH: EVQLVQSGAEIRKPGESLKISCKGSGYSFTTYWIAWVRQMPGKGLEWMGIIYPGDSDTRYSPSFQGQVTISADKSITTAYLQWSSLKASDTGIYYCARTYYYFSGSHWDAFDIWGQGTMVTVSS
VL: DIQMTQSPSSVSAYVGDRVTITCRASQDIRDCLAWYQQKPGKAPKFLIYAASSFQSGVPSGFSGSGSGTDFTLTVTSLQPEDSATYYCQQTHSFPYTFGQGTKLEIK
notes: also called Ab; Clone 10
- pSTAT3 Y705 induction, EC50 (nM) [12]: 5.69 nM
- pSTAT3 Y705 induction, Fold Over Background [12]: 26.7 fold
- binding result [13]: no binding
- binding result [17]: no binding
- EC50 [14]: 1.28 nM
- Kd [15]: 61 nM

B7: Anti-PILRA antibody clone 4 (antibody, human IgG1, kappa, L234A L235A, V domains shown)
VH: EVQLVESGGGLVQPGRSLRLSCAASGFTFDDYAIHWVRQAPGKGLEWVSGMSWNSGSIGYGDSVKGRFTISRDNAKNSLYLQMNSLRAEDTAFYYCAKDKSIGAAGRFDSWGQGTLVTVSS
VL: not shown
notes: also called Ab; Clone 4; Ab.4
- pSTAT3 Y705 induction, EC50 (nM) [12]: 1.98 nM
- pSTAT3 Y705 induction, Fold Over Background [12]: 14.7 fold
- binding result [13]: no binding
- EC50 [14]: 24.9 nM
- binding result [18]: no binding (tested: 100 nM)
- Kd [15]: 8.3 nM
- Kd [16]: 7.4 nM

B8: Anti-PILRA antibody clone 1 (antibody, V domains shown)
VH: B7 VH with A24V, I34M, M51F, G61P, G103S, S110Y
VL: DIQMTQSPSSLSASVGDRVTITCQASRRINNYLNWYQQKPGKAPKLLIYDASNLETGVPSRFTGSGSGTDFTLTISSLQPEDIATYYCQQYDNLPLTFGGGTKIKIK
- pSTAT3 Y705 induction, EC50 (nM) [12]: 5.66 nM
- pSTAT3 Y705 induction, Fold Over Background [12]: 16.2 fold
- binding result [13]: no binding
- EC50 [14]: 13.8 nM
- binding result [18]: no binding (tested: 100 nM)
- EC50 [19]: 1.8 nM
- EC50 [20]: 6.8 nM
- EC50 [21]: 5.6 nM
- Kd [15]: 2.3 nM
- Kd [16]: 0.91 nM
- EC50 [22]: 14 nM

B9: Anti-PILRA antibody clone 5 (antibody, human IgG1, kappa, L234A L235A, V domains shown)
VH: QVQLVQSGAEVKKPGASVRVSCKASGYTFIGFYIHWVRQAPGQGLEWMGWINPESGDTTYAQKFQGRVTMTTDTSINTAYMDLNRLRSDDSAVYFCARGNWNFPDTFDFWGQGTMVIVSS
VL: DIQMTQSPSSLSASVGDRVTITCRSSQSISIYLNWHQQIPGKAPKLLIYVASSLQSGIPSRFSGRGSGTEFTLTISSLQPEDFATYYCQQSYSAPFTFGPGTKVDIKR
notes: also called Ab; Clone 5; Ab.5
- pSTAT3 Y705 induction, EC50 (nM) [12]: 1.51 nM
- pSTAT3 Y705 induction, Fold Over Background [12]: 15.8 fold
- binding result [13]: no binding
- EC50 [14]: 32.5 nM
- binding result [18]: no binding (tested: 100 nM)
- EC50 [19]: 9.8 nM
- EC50 [20]: 17 nM
- EC50 [21]: 0.9 nM
- Kd [15]: 0.66 nM
- Kd [16]: 19 nM
- EC50 [22]: 1.3 nM

B10: Anti-PILRA antibody clone 9 (antibody, V domains shown)
VH: QVQLQESGPGLVKPSGTLSLTCAVSGGSISSNNWWSWVRQPPGKGLEWIGEIYHFGTTTYNPSLKSRVTISVDKSKNQFSLKLSSLTAADTAVYYCARTLRDFYYYMDVWGKGTTVTVSS
VL: DIHMTQSPSSLSASVGDRVTITCRTSQNINTYLNWYQQRPGRAPKLLIYAASSLQSGVPSRFSGSGSGTDFILSISSLQPEDFATYYCQQSFNIPLTFGGGTKVEIK
notes: also called Ab; Clone 9
- pSTAT3 Y705 induction, EC50 (nM) [12]: 5.93 nM
- pSTAT3 Y705 induction, Fold Over Background [12]: 16.9 fold
- binding result [13]: no binding
- binding result [17]: no binding
- EC50 [14]: 1.28 nM
- Kd [15]: 1.6 nM
